No end group written: not given here.
Experiments:
δPKC = target: T1, δPKC (Homo sapiens, UniProt Q05655); assay: Proteinase K sensitivity of recombinant δPKC; format: binding; conditions: non-TAT conjugated peptide; vs no peptide or control peptide ΨδRACK
T1 construct: purchased Invitrogen
Description: Human recombinant δPKC (Invitrogen, Calif., USA; 50 ng; 0.625 pmole) was incubated with ΨPDK (non-TAT conjugated, 1 nmole) prior to addition of proteinase K (0.05 μg/ml) in 20 mM Tris-HCl, pH 7.4 containing 1 μM DTT. The reaction was stopped as indicated by adding 5 mM PMSF.
(§1) Since ΨPDK is derived from a PDK-like sequence in δPKC (FIG. 1B), it was reasoned that this peptide should act as a competitive inhibitor, selective for δPKC phosphorylation of PDK. To test this hypothesis directly, an in vitro kinase assay in which the ability of δPKC to phosphorylate PDK is determined was used.

βIPKC = βIPKC (Homo sapiens, UniProt P05771); assay: Proteinase K sensitivity of βIPKC; format: binding
Chain of βIPKC (P05771 whole entry): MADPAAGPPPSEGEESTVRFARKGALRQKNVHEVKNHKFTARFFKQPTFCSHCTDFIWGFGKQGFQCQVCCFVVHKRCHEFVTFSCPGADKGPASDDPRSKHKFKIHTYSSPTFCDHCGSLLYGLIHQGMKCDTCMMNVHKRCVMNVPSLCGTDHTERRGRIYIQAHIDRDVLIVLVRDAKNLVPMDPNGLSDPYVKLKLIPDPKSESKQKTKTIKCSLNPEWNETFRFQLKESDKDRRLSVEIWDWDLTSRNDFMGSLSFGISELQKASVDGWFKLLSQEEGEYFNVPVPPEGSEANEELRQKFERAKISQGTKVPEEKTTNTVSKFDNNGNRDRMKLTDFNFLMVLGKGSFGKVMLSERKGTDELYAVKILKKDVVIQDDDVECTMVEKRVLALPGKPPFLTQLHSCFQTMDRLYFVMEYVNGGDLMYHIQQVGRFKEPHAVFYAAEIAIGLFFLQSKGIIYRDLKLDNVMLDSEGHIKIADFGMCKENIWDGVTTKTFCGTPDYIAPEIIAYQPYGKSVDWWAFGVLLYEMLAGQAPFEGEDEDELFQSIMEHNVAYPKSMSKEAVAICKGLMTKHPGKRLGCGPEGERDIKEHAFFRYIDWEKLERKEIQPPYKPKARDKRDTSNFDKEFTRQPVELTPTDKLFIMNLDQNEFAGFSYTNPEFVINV

[1] = target: T2, δPKC phosphorylation of Drp1 (Homo sapiens, UniProt Q05655); assay: In vitro kinase assay: δPKC phosphorylation of Drp1; format: biochemical
T2 construct: purchased Invitrogen
T2 sequence (Q05655 whole entry): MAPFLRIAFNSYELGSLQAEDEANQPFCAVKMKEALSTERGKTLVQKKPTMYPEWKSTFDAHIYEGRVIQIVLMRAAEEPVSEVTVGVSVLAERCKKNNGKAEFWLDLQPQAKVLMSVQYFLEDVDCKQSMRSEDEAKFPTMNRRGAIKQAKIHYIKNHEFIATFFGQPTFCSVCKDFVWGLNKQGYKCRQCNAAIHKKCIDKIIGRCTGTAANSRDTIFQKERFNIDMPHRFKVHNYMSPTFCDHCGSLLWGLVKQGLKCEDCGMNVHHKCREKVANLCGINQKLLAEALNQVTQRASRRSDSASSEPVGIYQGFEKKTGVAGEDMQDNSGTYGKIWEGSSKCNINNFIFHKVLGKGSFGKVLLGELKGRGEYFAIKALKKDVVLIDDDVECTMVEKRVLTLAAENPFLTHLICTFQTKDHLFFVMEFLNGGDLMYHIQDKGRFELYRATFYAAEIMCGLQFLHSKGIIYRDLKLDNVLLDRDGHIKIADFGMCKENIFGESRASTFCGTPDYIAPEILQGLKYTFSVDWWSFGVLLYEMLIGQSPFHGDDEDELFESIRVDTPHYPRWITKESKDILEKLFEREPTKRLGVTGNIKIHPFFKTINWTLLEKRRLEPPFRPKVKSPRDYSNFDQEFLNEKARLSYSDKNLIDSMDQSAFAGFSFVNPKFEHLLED
Description: In vitro phosphorylation assay. To determine the level of PDK and Drp1 phosphorylation in presence of ΨPDK, δPKC recombinant protein (Invitrogen, Calif., USA; 200 ng) was incubated with or without peptides for 10 min, then 100 ng recombinant PDK2 (Abnova, Taiwan) or Drp1 (Abnova, Taiwan) were added for 20 min at 37° C. in 40 μl of kinase buffer (20 mM Tris-HCl, 20 mM MgCl2, 1 μM DTT, 25 μM ATP, 1 mM CaCl2) containing 5 μCi [γ^32P] ATP (4500 Ci/mmol, ICN) in the presence of the low amount of PKC activators, phosphatidylserine (PS, 1.25 μg) and 1,2 dioleoyl sn-glycerol (DG, 0.04 μg). The kinase assay was terminated by adding loading Laemmli buffer containing 5% SDS and the samples were loaded on a 10% PAGE-SDS polyacrylamide gel, and the levels of phosphorylated PDK2 protein were determined by exposing the nitrocellulose to autoradiography. The nitrocellulose was also reprobed using respective antibodies for loading controls.
as §1

JNK = JNK phosphorylation in hearts subjected to I/R (Western blot); parameters: species or system rat
Description: An ex vivo model of acute ischemic heart damage was used, which involves a 30 min equilibration period, followed by 30 min of global ischemia, which in turn is followed by 60 min of reperfusion. The hearts were perfused with 1 μM TAT or TAT-conjugated peptide. Normoxic control hearts were subjected to 90 min perfusion in the absence of ischemia. Coronary effluent was collected to determine creatine phosphokinase (CPK) release during the first 30 min of the reperfusion period. At the end of the reperfusion period, hearts were sliced into 1-mm-thick transverse sections and incubated in triphenyltetrazolium chloride solution (TTC, 1% in phosphate buffer, pH 7.4) at 37° C. for 15 min. Infarct size was expressed as a percentage of the risk zone (equivalent to total LV muscle mass) (methods described in Brandman et al., 2007, J. Biol. Chem., 282:4113-4123; Inagaki et al., 2003, Circulation, 108:869-875).
Rat hearts were homogenized in a buffer containing 210 mM mannitol, 70 mM sucrose, 5 mM MOPS and 1 mM EDTA followed by isolation of the mitochondria fraction (described in Churchill et al., 2008, J. Mol. Cell. Cardiol., 46:278-284) and identified by the presence of VDAC (MitoSciences, Eugene, Oreg., USA). The level of phosphorylated and unphosphorylated JNK1/2 was analyzed in the total fraction using respective specific antibodies (Cell Signaling, Danvers, Mass. and Santa Cruz Biotechnology, CA, USA).
First, I/R-induced infarct size after treatment with ΨPDK or δV1-1 (Inagaki et al., 2003, Circulation, 108:869-875), was smaller than that in hearts treated with the control peptide or with ΨδRACK, the δPKC-specific activator or with δV1-5 (FIG. 6A). Second, similar data were obtained when determining the levels of released creatine phosphokinase (CPK), as a marker of myocardial infarction; CPK levels in the ΨPDK- or δV1-1-treated hearts were similar and were lower than those after treatment with control peptide, ΨδRACK or δV1-5 (FIG. 6B).
To begin determining the contribution of each of the amino acids on the effect of the peptide, Alanine scanning was used (Brunel et al., 2006, J. Virol., 80:1680-1687; Chen et al., J. Pep. Res., 2000, 56:147-156; Brems et al., 1992, Prot. Eng., 5:527-533) (substituting individual amino acid with an alanine). The resultant ΨPDK peptide analogs were then used in the same model of myocardial infarction, using CPK release and JNK phosphorylation as markers for cardiac injury. CPI release into the perfusates and pJNK in the hearts were determined after I/R in the presence of respective peptides and compared to the levels in hearts subjected to I/R in the presence of the control peptide. None of the peptides having a substitution had any significant biological activity (Table 1).

εPKC = target: T3, εPKC (Homo sapiens, UniProt Q02156); assay: Proteinase K sensitivity of εPKC; format: binding
T3 sequence (Q02156 1-737): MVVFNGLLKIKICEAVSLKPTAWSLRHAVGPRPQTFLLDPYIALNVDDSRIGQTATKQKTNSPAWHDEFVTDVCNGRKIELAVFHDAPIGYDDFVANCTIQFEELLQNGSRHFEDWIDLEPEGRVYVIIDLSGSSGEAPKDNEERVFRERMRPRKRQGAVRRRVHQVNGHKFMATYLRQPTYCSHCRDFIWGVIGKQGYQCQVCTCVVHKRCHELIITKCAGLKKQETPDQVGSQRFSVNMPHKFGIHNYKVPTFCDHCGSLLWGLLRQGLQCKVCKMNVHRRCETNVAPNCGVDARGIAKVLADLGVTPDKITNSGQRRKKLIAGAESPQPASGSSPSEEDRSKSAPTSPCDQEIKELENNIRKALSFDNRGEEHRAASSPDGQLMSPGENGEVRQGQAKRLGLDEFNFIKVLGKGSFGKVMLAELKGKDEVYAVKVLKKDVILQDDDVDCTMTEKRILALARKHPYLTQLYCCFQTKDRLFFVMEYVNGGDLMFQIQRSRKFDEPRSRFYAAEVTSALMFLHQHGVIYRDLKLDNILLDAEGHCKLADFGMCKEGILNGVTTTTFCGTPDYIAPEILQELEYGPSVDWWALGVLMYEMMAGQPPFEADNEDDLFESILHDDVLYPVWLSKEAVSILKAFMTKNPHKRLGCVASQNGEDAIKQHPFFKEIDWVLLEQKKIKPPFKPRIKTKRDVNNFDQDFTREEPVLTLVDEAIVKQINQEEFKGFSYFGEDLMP

T1 sequence (Q05655 whole entry): as the sequence (Q05655 whole entry) above

**Q.** Which results are given for “ALSTER (not fully specified (C-terminus); also: TAT47-57 conjugated via disulfide) [ΨPDK, for cells and hearts conjugated to TAT47-57 via disulfide bond]”?
**A.** stability of δPKC to proteinase K digestion (δPKC): more stable to PK digestion; sensitivity of βIPKC to proteolysis by PK (βIPKC): unaffected; Drp1 phosphorylation by δPKC [1]: did not affect Drp1 phosphorylation; p-JNK/total JNK (JNK; ex vivo I/R hearts, 1 μM peptide): 0.4 ± 0.10; I/R-induced JNK phosphorylation (in words) (JNK; ex vivo I/R, vs δV1-5 and ΨδRACK): reduced I/R-induced JNK phosphorylation; sensitivity of εPKC to proteolysis by PK (εPKC): unaffected

Reference: patent publication US10131691B2, “Compositions and methods for specific regulation of pyruvate dehydrogenase kinase” (THE BOARD OF TRUSTEES OF THE LELAND STANFORD JUNIOR …, priority 2011, dated 2018)
